Measured values reported in the supplement of paper PMC9112550, “Optimization of the antimicrobial peptide Bac7 by deep mutational scanning” (BMC Biology, 2022).

These sequences were tested on Escherichia coli TOP10 (assay: shrunken log2 fold change of peptide-encoding DNA abundance (4.5 h post-induction vs induction); higher = less antimicrobial activity (less host growth inhibition)). Details: time post-induction: 4.5 h; library: site-saturation at positions 5, 18, 19, 20.
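Also: peptides expressed intracellularly from a pBAD plasmid library in pooled LB shake-flask culture, induced with 0.3% L-arabinose, DNA abundance read by NGS, three biological replicates, DESeq2 with apeglm shrinkage.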

| Sequence | shrunken log2 fold change |
| --- | --- |
| RRIRPRPPRLPRPRPRPQMYPRP | -0.338 |
| RRIRFRPPRLPRPRPRPTSAPRP | 0.344 |
| RRIRWRPPRLPRPRPRPLDYPRP | -0.314 |
| RRIRCRPPRLPRPRPRPNRRPRP | -0.0599 |
| RRIRCRPPRLPRPRPRPPKFPRP | -0.0746 |
| RRIRDRPPRLPRPRPRPEIIPRP | 0.0753 |
| RRIRLRPPRLPRPRPRPVFKPRP | -0.134 |
| RRIRLRPPRLPRPRPRPKIAPRP | -0.203 |
| RRIRYRPPRLPRPRPRPKENPRP | -0.0772 |
| RRIRLRPPRLPRPRPRPHKTPRP | 0.0373 |
| RRIRHRPPRLPRPRPRPVQHPRP | -0.0639 |
| RRIRPRPPRLPRPRPRPVRMPRP | 0.213 |
| RRIRFRPPRLPRPRPRPYCCPRP | -0.324 |
| RRIRRRPPRLPRPRPRPEWWPRP | -0.0131 |
| RRIRMRPPRLPRPRPRPMLKPRP | 0.197 |
| RRIRQRPPRLPRPRPRPSYVPRP | -1.04 |
| RRIRGRPPRLPRPRPRPAHLPRP | 0.768 |
| RRIRCRPPRLPRPRPRPNNTPRP | -0.737 |
| RRIRLRPPRLPRPRPRPQTKPRP | -0.201 |
| RRIRERPPRLPRPRPRPMQYPRP | -0.271 |
| RRIRRRPPRLPRPRPRPCHYPRP | 0.00952 |
| RRIRDRPPRLPRPRPRPTKKPRP | -0.0587 |
| RRIRRRPPRLPRPRPRPQQRPRP | 0.795 |
| RRIRLRPPRLPRPRPRPTYEPRP | -0.308 |
| RRIRLRPPRLPRPRPRPTKGPRP | 0.226 |

| Sequence | shrunken log2 fold change |
| --- | --- |
| RRIRNRPPRLPRPRPRPWWIPRP | -0.00145 |
| RRIRWRPPRLPRPRPRPCSFPRP | 0.0624 |
| RRIRSRPPRLPRPRPRPGCEPRP | 0.145 |
| RRIRPRPPRLPRPRPRPHKQPRP | -0.022 |
| RRIRERPPRLPRPRPRPPTMPRP | -0.151 |
| RRIRTRPPRLPRPRPRPHLGPRP | 0.0458 |
| RRIRCRPPRLPRPRPRPIRCPRP | -0.00208 |
| RRIRNRPPRLPRPRPRPTTLPRP | -0.294 |
| RRIRDRPPRLPRPRPRPSITPRP | -0.197 |
| RRIRQRPPRLPRPRPRPCNCPRP | -0.0201 |
| RRIRFRPPRLPRPRPRPFSDPRP | -0.229 |
| RRIRSRPPRLPRPRPRPIHIPRP | -0.157 |
| RRIRVRPPRLPRPRPRPEMSPRP | 0.0206 |
| RRIRMRPPRLPRPRPRPTNRPRP | 0.282 |
| RRIRWRPPRLPRPRPRPWDFPRP | -0.2 |
| RRIRKRPPRLPRPRPRPVEYPRP | 0.0119 |
| RRIRCRPPRLPRPRPRPLEEPRP | 0.408 |
| RRIRHRPPRLPRPRPRPSQNPRP | -0.0324 |
| RRIRKRPPRLPRPRPRPYSHPRP | -0.134 |
| RRIRSRPPRLPRPRPRPWGHPRP | 0.109 |
| RRIRYRPPRLPRPRPRPHHPPRP | -0.38 |
| RRIRNRPPRLPRPRPRPGPGPRP | 0.274 |
| RRIRHRPPRLPRPRPRPWRDPRP | -0.154 |
| RRIRARPPRLPRPRPRPDRRPRP | 0.086 |
| RRIRWRPPRLPRPRPRPSFYPRP | -0.328 |

| Sequence | shrunken log2 fold change |
| --- | --- |
| RRIRGRPPRLPRPRPRPIINPRP | 0.0488 |
| RRIRDRPPRLPRPRPRPAKMPRP | -0.156 |
| RRIRGRPPRLPRPRPRPQTRPRP | 1.12 |
| RRIRKRPPRLPRPRPRPQPKPRP | 0.19 |
| RRIRNRPPRLPRPRPRPEDPPRP | 0.00956 |
| RRIRRRPPRLPRPRPRPGDLPRP | 1.58 |
| RRIRARPPRLPRPRPRPHSAPRP | -0.0202 |
| RRIRNRPPRLPRPRPRPHWWPRP | 0.127 |
| RRIRSRPPRLPRPRPRPICVPRP | -0.111 |
| RRIRERPPRLPRPRPRPTMYPRP | -0.162 |
| RRIRGRPPRLPRPRPRPMSYPRP | 0.0417 |
| RRIRKRPPRLPRPRPRPCVNPRP | 0.0687 |
| RRIRERPPRLPRPRPRPYWWPRP | -0.142 |
| RRIRNRPPRLPRPRPRPNVQPRP | -0.128 |
| RRIRNRPPRLPRPRPRPWASPRP | 0.00581 |
| RRIRRRPPRLPRPRPRPQYFPRP | -0.0475 |
| RRIRWRPPRLPRPRPRPQPDPRP | 0.32 |
| RRIRRRPPRLPRPRPRPQESPRP | -0.131 |
| RRIRIRPPRLPRPRPRPYNCPRP | -0.411 |
| RRIRPRPPRLPRPRPRPSQDPRP | -0.334 |
| RRIRRRPPRLPRPRPRPRYNPRP | -0.132 |
| RRIRARPPRLPRPRPRPERDPRP | 0.613 |
| RRIRHRPPRLPRPRPRPIAFPRP | -0.362 |
| RRIRSRPPRLPRPRPRPFEKPRP | 0.00827 |
| RRIRLRPPRLPRPRPRPIEYPRP | -0.426 |

| Sequence | shrunken log2 fold change |
| --- | --- |
| RRIRIRPPRLPRPRPRPRMSPRP | -0.323 |
| RRIRERPPRLPRPRPRPQDCPRP | 0.015 |
| RRIRMRPPRLPRPRPRPRLIPRP | 0.0709 |
| RRIRPRPPRLPRPRPRPDGYPRP | -0.246 |
| RRIRRRPPRLPRPRPRPVNEPRP | 0.196 |
| RRIRIRPPRLPRPRPRPFASPRP | -0.675 |
| RRIRWRPPRLPRPRPRPANQPRP | 0.559 |
| RRIRNRPPRLPRPRPRPHPCPRP | 0.231 |
| RRIRRRPPRLPRPRPRPPDVPRP | 0.474 |
| RRIRCRPPRLPRPRPRPLLWPRP | 0.671 |
| RRIRTRPPRLPRPRPRPMGCPRP | -0.145 |
| RRIRQRPPRLPRPRPRPEGWPRP | 0.856 |
| RRIRFRPPRLPRPRPRPGSMPRP | -0.255 |
| RRIRKRPPRLPRPRPRPVPPPRP | 1.85 |
| RRIRDRPPRLPRPRPRPHIHPRP | -0.342 |
| RRIRTRPPRLPRPRPRPFSSPRP | -0.399 |
| RRIRWRPPRLPRPRPRPAANPRP | -0.136 |
| RRIRCRPPRLPRPRPRPGWIPRP | 0.198 |
| RRIRGRPPRLPRPRPRPGWQPRP | 0.0826 |
| RRIRMRPPRLPRPRPRPTHIPRP | -0.363 |
| RRIRKRPPRLPRPRPRPCLTPRP | -0.0179 |
| RRIRTRPPRLPRPRPRPRWIPRP | 0.0272 |
| RRIRTRPPRLPRPRPRPDKHPRP | -0.551 |
| RRIRYRPPRLPRPRPRPYLAPRP | -0.682 |
| RRIRGRPPRLPRPRPRPGVKPRP | 0.588 |

| Sequence | shrunken log2 fold change |
| --- | --- |
| RRIRMRPPRLPRPRPRPIKGPRP | -0.0612 |
| RRIRFRPPRLPRPRPRPHDKPRP | -0.00198 |
| RRIRIRPPRLPRPRPRPEYQPRP | 0.00783 |
| RRIRKRPPRLPRPRPRPNMDPRP | -0.0504 |
| RRIRCRPPRLPRPRPRPRRHPRP | -0.0331 |
| RRIRHRPPRLPRPRPRPPTGPRP | 0.03 |
| RRIRCRPPRLPRPRPRPMGWPRP | 0.324 |
| RRIRQRPPRLPRPRPRPLAMPRP | 0.294 |
| RRIRIRPPRLPRPRPRPLVMPRP | -1.56 |
| RRIRRRPPRLPRPRPRPDDEPRP | 0.0458 |
| RRIRIRPPRLPRPRPRPPNYPRP | -0.923 |
| RRIRWRPPRLPRPRPRPWPVPRP | 0.502 |
| RRIRSRPPRLPRPRPRPKCYPRP | -0.16 |
| RRIRRRPPRLPRPRPRPYLIPRP | -0.082 |
| RRIRHRPPRLPRPRPRPLCRPRP | 0.0244 |
| RRIRRRPPRLPRPRPRPWKWPRP | -0.00244 |
| RRIRWRPPRLPRPRPRPMNCPRP | 0.0143 |
| RRIRTRPPRLPRPRPRPYKIPRP | -0.15 |
| RRIRKRPPRLPRPRPRPVWMPRP | 0.136 |
| RRIRVRPPRLPRPRPRPFTMPRP | -0.368 |
| RRIRFRPPRLPRPRPRPVPIPRP | -0.0344 |
| RRIRIRPPRLPRPRPRPGWEPRP | 0.0557 |
| RRIRKRPPRLPRPRPRPDNVPRP | -0.0064 |
| RRIRFRPPRLPRPRPRPFAYPRP | 0.0263 |
| RRIRQRPPRLPRPRPRPSGDPRP | -0.00374 |

| Sequence | shrunken log2 fold change |
| --- | --- |
| RRIRCRPPRLPRPRPRPGGNPRP | -0.0575 |
| RRIRIRPPRLPRPRPRPLHVPRP | -0.135 |
| RRIRMRPPRLPRPRPRPSHYPRP | -0.201 |
| RRIRRRPPRLPRPRPRPCTMPRP | -0.451 |
| RRIRPRPPRLPRPRPRPHWNPRP | -0.447 |
| RRIRKRPPRLPRPRPRPLYKPRP | -0.112 |
| RRIRGRPPRLPRPRPRPEIEPRP | 1.37 |
| RRIRDRPPRLPRPRPRPKGMPRP | -0.00453 |
| RRIRHRPPRLPRPRPRPCTSPRP | -0.0185 |
| RRIRLRPPRLPRPRPRPWQGPRP | -0.00192 |
| RRIRLRPPRLPRPRPRPIMLPRP | -1.12 |
| RRIRVRPPRLPRPRPRPTYYPRP | -0.315 |
| RRIRARPPRLPRPRPRPPRMPRP | 0.949 |
| RRIRRRPPRLPRPRPRPCRSPRP | -0.03 |
| RRIRIRPPRLPRPRPRPMYHPRP | -0.839 |
| RRIRHRPPRLPRPRPRPDNMPRP | 3.69 |
| RRIRHRPPRLPRPRPRPWIDPRP | -0.00448 |
| RRIRHRPPRLPRPRPRPIEQPRP | -0.0277 |
| RRIRPRPPRLPRPRPRPLQIPRP | -0.161 |
| RRIRNRPPRLPRPRPRPHQKPRP | 0.0226 |
| RRIRGRPPRLPRPRPRPFNQPRP | -0.28 |
| RRIRERPPRLPRPRPRPGLCPRP | 0.00687 |
| RRIRIRPPRLPRPRPRPELCPRP | 0.0211 |
| RRIRARPPRLPRPRPRPHDLPRP | 0.084 |
| RRIRMRPPRLPRPRPRPDMWPRP | 0.805 |
